Assay results: the Immune Epitope Database (IEDB)

What was measured:
HLA-B*15:01 [1] = test: IEDB peptide-MHC binding, purified MHC/competitive/fluorescence; filed as Kd, often an IC50 or EC50 that approximates it; ≥ and ≤ were set here for values at or beyond the usual limits of such assays; settings: source organism: Human immunodeficiency virus 1
HLA-A*01:01 [2] = test: as above; settings: source organism: Human immunodeficiency virus 1
HLA-B*57:01 [3] = test: as above; settings: source organism: Human immunodeficiency virus 1
HLA-A*02:06 = test: as above; settings: source organism: Human immunodeficiency virus 1
HLA-A*11:01 = test: as above
HLA-A*26:02 = test: as above; settings: source organism: Human immunodeficiency virus 1
HLA-A*02:03 [4] = test: as above
HLA-A*30:01 = test: as above; settings: source organism: Human immunodeficiency virus 1
HLA-B*35:01 = test: as above; settings: source organism: Human immunodeficiency virus 1
HLA-B*18:01 [5] = test: as above; settings: source organism: Human immunodeficiency virus 1
HLA-B*48:01 [6] = test: as above; settings: source organism: Mycobacterium tuberculosis variant bovis BCG str. Pasteur 1173P2
HLA-B*73:01 [7] = test: as above; settings: source organism: Escherichia coli O157:H7 str. Sakai
HLA-B*27:03 = test: IEDB peptide-MHC binding, purified MHC/direct/fluorescence; filed as Kd, often an IC50 or EC50 that approximates it; ≥ and ≤ were set here for values at or beyond the usual limits of such assays
HLA-A*03:01 = test: as above
HLA-B*57:01 [8] = test: as above
HLA-B*46:01 = test: as above
HLA-A*02:16 = test: as above
HLA-A*02:01 = test: as above
HLA-A*26:01 = test: as above
HLA-B*39:01 = test: as above
HLA-A*02:12 = test: as above
HLA-A*02:19 = test: as above
HLA-B*51:01 = test: as above
HLA-A*02:11 = test: as above
HLA-B*18:01 [9] = test: as above
HLA-B*15:01 [10] = test: as above
HLA-A*24:03 = test: as above; settings: source organism: Burkholderia mallei ATCC 23344
HLA-A*68:02 = test: as above
HLA-A*02:03 [11] = test: as above; settings: source organism: Burkholderia mallei ATCC 23344
HLA-A*69:01 = test: as above
HLA-A*31:01 = test: IEDB peptide-MHC binding, purified MHC/competitive/fluorescence; filed as Kd, often an IC50 or EC50 that approximates it; ≥ and ≤ were set here for values at or beyond the usual limits of such assays; settings: source organism: Brucella abortus S19
HLA-A*26:03 = test: as above; settings: source organism: Brucella abortus S19
HLA-A*01:01 [12] = test: IEDB peptide-MHC binding, purified MHC/direct/fluorescence; filed as Kd, often an IC50 or EC50 that approximates it; ≥ and ≤ were set here for values at or beyond the usual limits of such assays; settings: source organism: Brucella abortus 2308
HLA-B*27:05 = test: as above; settings: source organism: Brucella abortus 2308
HLA-B*15:17 = test: as above; settings: source organism: Brucella abortus 2308
HLA-B*73:01 [13] = test: as above; settings: source organism: Brucella suis 1330
HLA-B*48:01 [14] = test: as above; settings: source organism: Brucella abortus 2308
HLA-B*58:01 = test: as above; settings: source organism: Brucella abortus 2308
HLA-B*08:01 = test: as above; settings: source organism: Brucella suis 1330
HLA-B*07:02 = test: as above; settings: source organism: Brucella abortus 2308
HLA-A*24:02 = test: IEDB peptide-MHC binding, cellular MHC/competitive/fluorescence; ≥ and ≤ were set here for values at or beyond the usual limits of such assays; settings: source organism: Human herpesvirus 5 strain AD169
HLA-A*68:01 = test: IEDB peptide-MHC binding, purified MHC/competitive/radioactivity; ≥ and ≤ were set here for values at or beyond the usual limits of such assays; settings: source organism: Hepacivirus hominis
HLA-A*01:01 [15] = test: as above; settings: source organism: Homo sapiens
HLA-C*04:01 = test: IEDB peptide-MHC binding, purified MHC/competitive/fluorescence; filed as Kd, often an IC50 or EC50 that approximates it; ≥ and ≤ were set here for values at or beyond the usual limits of such assays; settings: source organism: Burkholderia pseudomallei S13
HLA-A*23:01 = test: as above; settings: source organism: Burkholderia pseudomallei S13
HLA-B*15:42 = test: as above; settings: source organism: Burkholderia pseudomallei S13
HLA-B*83:01 = test: as above; settings: source organism: Burkholderia pseudomallei S13
HLA-B*45:06 = test: as above; settings: source organism: Burkholderia pseudomallei S13
[16] = source organism: Human immunodeficiency virus 1
[17] = source organism: Mycobacterium tuberculosis str. Haarlem
[18] = source organism: Burkholderia mallei ATCC 23344
[19] = source organism: Brucella abortus S19
[20] = source organism: Brucella abortus 2308

For RSLFNTVAVLY, the Kd (HLA-B*15:01 [1]) was 0.907 µM, the Kd (HLA-A*01:01 [2]) was at least 20 µM and the Kd (HLA-B*57:01 [3]) was 0.676 µM. For the same sequence, the Kd (HLA-A*02:06) was 0.952 µM, the Kd (HLA-A*11:01; [16]) was 1.35 µM and the Kd (HLA-A*26:02) was 3.07 µM. It also gave a Kd (HLA-A*02:03 [4]; [16]) of 0.644 µM, a Kd (HLA-A*30:01) of 2.96 µM and a Kd (HLA-B*35:01) of 0.387 µM. It also gave a Kd (HLA-B*18:01 [5]) of 0.36 µM.
In the case of RMVIGGVAL, the Kd (HLA-B*48:01 [6]) is reported as 0.0681 µM.
NEWYVQPQA gave a Kd (HLA-B*73:01 [7]) of 0.0673 µM.
In the case of RLGWRTLDF, the Kd (HLA-B*27:03; [17]) is reported as at least 20 µM, the Kd (HLA-A*03:01; [17]) is reported as at least 20 µM and the Kd (HLA-B*57:01 [8]; [17]) is reported as at least 20 µM. It also gave a Kd (HLA-B*46:01; [17]) of at least 20 µM, a Kd (HLA-A*02:16; [17]) of at least 20 µM and a Kd (HLA-A*02:01; [17]) of at least 20 µM. The Kd (HLA-A*26:01; [17]) was at least 20 µM, the Kd (HLA-B*39:01; [17]) was at least 20 µM and the Kd (HLA-A*02:12; [17]) was at least 20 µM. It also gave a Kd (HLA-A*02:19; [17]) of at least 20 µM, a Kd (HLA-B*51:01; [17]) of at least 20 µM and a Kd (HLA-A*02:11; [17]) of at least 20 µM. The Kd (HLA-B*18:01 [9]; [17]) was at least 20 µM.
In the case of LARFPCNVI, the Kd (HLA-B*15:01 [10]; [18]) is reported as at least 20 µM, the Kd (HLA-B*27:03; [18]) is reported as at least 20 µM and the Kd (HLA-A*03:01; [18]) is reported as at least 20 µM. It also gave a Kd (HLA-B*46:01; [18]) of at least 20 µM, a Kd (HLA-A*02:16; [18]) of at least 20 µM and a Kd (HLA-A*02:01; [18]) of at least 20 µM. The Kd (HLA-A*24:03) was at least 20 µM, the Kd (HLA-A*68:02; [18]) was at least 20 µM and the Kd (HLA-A*26:01; [18]) was at least 20 µM. The Kd (HLA-B*39:01; [18]) was at least 20 µM, the Kd (HLA-A*02:03 [11]) was at least 20 µM and the Kd (HLA-A*02:12; [18]) was at least 20 µM. The Kd (HLA-A*02:19; [18]) was at least 20 µM, the Kd (HLA-B*51:01; [18]) was 0.606 µM and the Kd (HLA-A*02:11; [18]) was at least 20 µM. It also gave a Kd (HLA-A*69:01; [18]) of at least 20 µM and a Kd (HLA-B*18:01 [9]; [18]) of at least 20 µM.
In the case of RMIESRMSK, the Kd (HLA-A*31:01) is reported as 0.0607 µM, the Kd (HLA-A*26:03) is reported as at least 20 µM and the Kd (HLA-A*11:01; [19]) is reported as 0.0055 µM. For the same sequence, the Kd (HLA-A*02:03 [4]; [19]) was at least 20 µM, the Kd (HLA-B*15:01 [10]; [20]) was 0.341 µM and the Kd (HLA-A*03:01; [20]) was 0.131 µM. The Kd (HLA-A*01:01 [12]) was at least 20 µM, the Kd (HLA-B*57:01 [8]; [20]) was at least 20 µM and the Kd (HLA-A*02:01; [20]) was at least 20 µM. The Kd (HLA-A*68:02; [20]) was at least 20 µM, the Kd (HLA-B*27:05) was 0.0525 µM and the Kd (HLA-B*39:01; source organism: Brucella suis 1330) was at least 20 µM. It also gave a Kd (HLA-B*15:17) of at least 20 µM, a Kd (HLA-B*73:01 [13]) of at least 20 µM and a Kd (HLA-B*48:01 [14]) of at least 20 µM. The Kd (HLA-B*58:01) was at least 20 µM, the Kd (HLA-A*69:01; [20]) was at least 20 µM and the Kd (HLA-B*08:01) was at least 20 µM. For the same sequence, the Kd (HLA-B*18:01 [9]; [20]) was at least 20 µM and the Kd (HLA-B*07:02) was at least 20 µM.
For VYYTSAFVF, the IC50 (HLA-A*24:02) was 35 µM.
In the case of QLFTFSPRR, the IC50 (HLA-A*68:01) is reported as 0.0026 µM.
In the case of IVDSLTEMY, the IC50 (HLA-A*01:01 [15]) is reported as 0.007 µM.
GFYLSGHLF gave a Kd (HLA-C*04:01) of at least 5 µM, a Kd (HLA-A*23:01) of at most 0.0001 µM and a Kd (HLA-B*15:42) of at least 5 µM. For the same sequence, the Kd (HLA-B*83:01) was at least 5 µM and the Kd (HLA-B*45:06) was at least 5 µM.
